This note sets out measurements from PMC11418112.

Test [1] concerns the target T1, SpoIIAA-P (phosphorylated SpoIIAA) (B. subtilis) (UniProt P10727).
T1 sequence (chain, phosphoserine at 58 (32P in the labelled tracer)): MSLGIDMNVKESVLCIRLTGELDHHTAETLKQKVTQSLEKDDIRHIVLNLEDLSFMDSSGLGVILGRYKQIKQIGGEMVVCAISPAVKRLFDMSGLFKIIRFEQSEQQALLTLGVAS

For test [2], the target named is T2, RsbV-P (phosphorylated RsbV) (B. subtilis) (UniProt P17903).
T2 sequence (chain, phosphoserine at 56 (32P)): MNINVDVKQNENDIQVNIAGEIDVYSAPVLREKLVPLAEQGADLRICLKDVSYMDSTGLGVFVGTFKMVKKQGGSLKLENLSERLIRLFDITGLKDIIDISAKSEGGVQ

Test [3] concerns the target T1, SpoIIAA-P (phosphorylated SpoIIAA) (B. subtilis). This is another data set of the same source.
Test [4] shares this target. The source holds these as a separate data set.
Test [5] addresses T3, SpoIIAA^R67T, phosphorylated (B. subtilis) (UniProt P10727).
T3 sequence (chain, phosphoserine at 58): T1 sequence (chain, phosphoserine at 58 (32P in the labelled tracer)) with R67T

Test [6] has as its target T2, RsbV-P (phosphorylated RsbV) (B. subtilis). The source holds these as a separate data set.
Test [7] shares this target. This is another data set of the same source.
Test [8] concerns the target T1, SpoIIAA-P (phosphorylated SpoIIAA) (B. subtilis). This is another data set of the same source.
For test [9] the target is unchanged. The source holds these as a separate data set.
In test [10] the target is T3, SpoIIAA^R67T, phosphorylated (B. subtilis). This is another data set of the same source.

Substitutions are numbered along the chain they refer to. Names and notes keep the numbering of the source. Read-outs that look alike come from different tables or passages of the source.

B1: SpoIIE phosphatase domain (SpoIIE^590-827) (domain or fragment)
chain: SYRVSTGAAHAAKGGGLVSGDSYSMMELGARKYAAAISDGMGNGARAHFESNETIKLLEKILESGIDEKIAIKTINSILSLRTTDEIYSTLDLSIIDLQDASCKFLKVGSTPSFIKRGDQVMKVQASNLPIGIINEFDVEVVSEQLKAGDLLIMMSDGIFEGPKHVENHDLWMKRKMKGLKTNDPQEIADLLMEEVIRTRSGQIEDDMTVVVVRIDHNTPKWASIPVPAIFQNKQEIS
Take B1: in test [1], the KM for SpoIIAA-P (multiple turnover, 10 mM MgCl2, Michaelis-Menten fit) turned out to be 28.7 µM; the kcat of SpoIIAA-P dephosphorylation (multiple turnover, 10 mM MgCl2, Michaelis-Menten fit) stood at 0.39 min^–1; the kcat/KM of SpoIIAA-P dephosphorylation (multiple turnover, 0.1 μM SpoIIE, 10 mM MgCl2) is 0.011 μM^–1 min^–1. Also, in test [2], the KM for RsbV-P (single turnover, varying SpoIIE, 10 mM MnCl2, Michaelis-Menten fit) came to 12.8 µM; the kcat of RsbV-P dephosphorylation (single turnover, 10 mM MnCl2, Michaelis-Menten fit) is 0.0086 min^–1; the kcat/KM of RsbV-P dephosphorylation (single turnover, 0.15 μM RsbV-P, 10 mM MnCl2) stood at 0.00045 μM^–1 min^–1. The KM for SpoIIAA-P as printed in the legend of Figure 4B (multiple turnover, 10 mM MgCl2) in [3] amounted to 0.39 µM. The molecule also gave a kobs of SpoIIAA-P dephosphorylation over time (0.1 μM SpoIIE, 0.5 μM SpoIIAA-P, 10 mM MnCl2) in [4] of 0.98 min^–1. For the same molecule, in [5], the kobs of SpoIIAA^R67T dephosphorylation over time (0.1 μM SpoIIE, 10 mM MnCl2) was found to be 0.056 min^–1.

B2: SpoIIE^3X (triple mutation of E675S, I723S, and P752R; phosphatase domain) (domain or fragment)
chain: B1 chain with E86S, I134S, P163R
As for B2, in test [6], the kcat/KM of RsbV-P dephosphorylation, fold change against SpoIIE (Fig. 4C) was 5 fold. Moreover, in test [7], the KM for RsbV-P (single turnover, varying SpoIIE, 10 mM MnCl2, Michaelis-Menten fit) is 29.1 µM and the kcat of RsbV-P dephosphorylation (single turnover, 10 mM MnCl2, Michaelis-Menten fit) was found to be 0.043 min^–1. Further, in [3], the kcat of SpoIIAA-P dephosphorylation (multiple turnover, 10 mM MgCl2, Michaelis-Menten fit) was 0.011 min^–1 and the kcat/KM of SpoIIAA-P dephosphorylation (multiple turnover, 0.1 μM SpoIIE, 10 mM MgCl2) worked out at 0.00011 μM^–1 min^–1.

B3: SpoIIE^E675S (phosphatase domain, SpoIIE^590-827) (domain or fragment)
chain: B1 chain with E86S
Turning to B3, the fold decrease in activity toward SpoIIAA-P with manganese as the metal cofactor, against SpoIIE (Fig. S5) in test [8] worked out at 2 fold. In test [1], the KM for SpoIIAA-P (multiple turnover, 10 mM MgCl2, Michaelis-Menten fit) amounted to 18.3 µM; the kcat of SpoIIAA-P dephosphorylation (multiple turnover, 10 mM MgCl2, Michaelis-Menten fit) was found to be 0.02 min^–1; the kcat/KM of SpoIIAA-P dephosphorylation (multiple turnover, 0.1 μM SpoIIE, 10 mM MgCl2) stood at 0.001 μM^–1 min^–1. Besides, in test [2], the KM for RsbV-P (single turnover, varying SpoIIE, 10 mM MnCl2, Michaelis-Menten fit) is 95.7 µM; the kcat of RsbV-P dephosphorylation (single turnover, 10 mM MnCl2, Michaelis-Menten fit) is 0.063 min^–1; the kcat/KM of RsbV-P dephosphorylation (single turnover, 0.15 μM RsbV-P, 10 mM MnCl2) was 0.00058 μM^–1 min^–1. Also, the kobs of SpoIIAA-P dephosphorylation over time (0.1 μM SpoIIE, 0.5 μM SpoIIAA-P, 10 mM MnCl2) in test [4] is 0.23 min^–1. Further, the kobs of SpoIIAA^R67T dephosphorylation over time (0.1 μM SpoIIE, 10 mM MnCl2) in test [5] is 0.086 min^–1.

B4: SpoIIE^P752R (phosphatase domain, SpoIIE^590-827) (domain or fragment)
chain: B1 chain with P163R
Consider B4, for which, in [1], the KM for SpoIIAA-P (multiple turnover, 10 mM MgCl2, Michaelis-Menten fit) amounted to 38.6 µM; the kcat of SpoIIAA-P dephosphorylation (multiple turnover, 10 mM MgCl2, Michaelis-Menten fit) came to 0.15 min^–1; the kcat/KM of SpoIIAA-P dephosphorylation (multiple turnover, 0.1 μM SpoIIE, 10 mM MgCl2) was 0.0039 μM^–1 min^–1. In addition, in test [2], the KM for RsbV-P (single turnover, varying SpoIIE, 10 mM MnCl2, Michaelis-Menten fit) is 79.3 µM; the kcat of RsbV-P dephosphorylation (single turnover, 10 mM MnCl2, Michaelis-Menten fit) turned out to be 0.15 min^–1; the kcat/KM of RsbV-P dephosphorylation (single turnover, 0.15 μM RsbV-P, 10 mM MnCl2) is 0.0035 μM^–1 min^–1.

B5: SpoIIE^I723S (phosphatase domain, SpoIIE^590-827) (domain or fragment)
chain: B1 chain with I134S
For the molecule B5, the fold decrease in rate of dephosphorylation of SpoIIAA-P, against SpoIIE (Fig. S6) in test [9] is 2 fold. Besides, in test [10], the fold decrease in rate of dephosphorylation of SpoIIAA^R67T, against SpoIIE (Fig. S6) worked out at 2 fold. Moreover, in [1], the KM for SpoIIAA-P (multiple turnover, 10 mM MgCl2, Michaelis-Menten fit) is 29.1 µM; the kcat of SpoIIAA-P dephosphorylation (multiple turnover, 10 mM MgCl2, Michaelis-Menten fit) was determined as 0.036 min^–1; the kcat/KM of SpoIIAA-P dephosphorylation (multiple turnover, 0.1 μM SpoIIE, 10 mM MgCl2) was 0.001 μM^–1 min^–1. Besides, in test [2], the KM for RsbV-P (single turnover, varying SpoIIE, 10 mM MnCl2, Michaelis-Menten fit) worked out at 47.6 µM; the kcat of RsbV-P dephosphorylation (single turnover, 10 mM MnCl2, Michaelis-Menten fit) worked out at 0.018 min^–1; the kcat/KM of RsbV-P dephosphorylation (single turnover, 0.15 μM RsbV-P, 10 mM MnCl2) was found to be 0.00028 μM^–1 min^–1.
